Reference: publication PMC11480844 (2024)

T1: peptide on HLA-B*07:02 (human)
T1 peptide: VPSVWRSSL


Target: T1, peptide on HLA-B*07:02
Assay: activation reporter or marker

| Binder | binding result |
| --- | --- |
| R21 (TCR, V domains shown) Valpha: AQKVTQAQTEISVVEKEDVTLDCVYETRDTTYYLFWYKQPPSGELVFLIRRNSFDEQNEISGRYSWNFQKSTSSFNFTITASQVVDSAVYFCALGTYGNNRLAFGKGNQVVVIP Vbeta: NAGVTQTPKFRILKIGQSMTLQCAQDMNHNYMYWYRQDPGMGLKLIYYSVGAGITDKGEVPNGYNVSRSTTEDFPLRLELAAPSQTSVYFCASTKGGPSSYEQYFGPGTRLTVT | recognises |
| R23 (TCR, V domains shown) Valpha: KQEVTQIPAALSVPEGENLVLNCSFTDSAIYNLQWFRQDPGKGLTSLLLIQSSQREQTSGRLNASLDKSSGRSTLYIAASQPGDSATYLCAVRPQGGSEKLVFGKGTKLTVNP Vbeta: EAQVTQNPRYLITVTGKKLTVTCSQNMNHEYMSWYRQDPGLGLRQIYYSMNVEVTDKGDVPEGYKVSRKEKRNFPLILESPSPNQTSLYFCASTVGGTQYFGPGTRLTVL | recognises |
| R24 (TCR, V domains shown) Valpha: GQQVMQIPQYQHVQEGEDFTTYCNSSTTLSNIQWYKQRPGGHPVFLIQLVKSGEVKKQKRLTFQFGEAKKNSSLHITATQTTDVGTYFCAVHMNRDDKIIFGKGTRLHILP Vbeta: EAQVTQNPRYLITVTGKKLTVTCSQNMNHEYMSWYRQDPGLGLRQIYYSMNVEVTDKGDVPEGYKVSRKEKRNFPLILESPSPNQTSLYFCASSLTSFYEQYFGPGTRLTVT | recognises |
| R25 (TCR, V domains shown) Valpha: GENVEQHPSTLSVQEGDSAVIKCTYSDSASNYFPWYKQELGKGPQLIIDIRSNVGEKKDQRIAVTLNKTAKHFSLHITETQPEDSAVYFCAAQKTSYDKVIFGPGTSLSVIP Vbeta: EAQVTQNPRYLITVTGKKLTVTCSQNMNHEYMSWYRQDPGLGLRQIYYSMNVEVTDKGDVPEGYKVSRKEKRNFPLILESPSPNQTSLYFCASSTPGSLNEQFFGPGTRLTVL | recognises |
| R26 (TCR, V domains shown) Valpha: GQQVMQIPQYQHVQEGEDFTTYCNSSTTLSNIQWYKQRPGGHPVFLIQLVKSGEVKKQKRLTFQFGEAKKNSSLHITATQTTDVGTYFCAGQDYAGKSTFGDGTTLTVKP Vbeta: DTGVSQNPRHKITKRGQNVTFRCDPISEHNRLYWYRQTLGQGPEFLTYFQNEAQLEKSRLLSDRFSAERPKGSFSTLEIQRTEQGDSAMYLCASSSGGRFYGYTFGSGTRLTVV | recognises |
| R28 (TCR, V domains shown) Valpha: AQTVTQSQPEMSVQEAETVTLSCTYDTSESDYYLFWYKQPPSRQMILVIRQEAYKQQNATENRFSVNFQKAAKSFSLKISDSQLGDAAMYFCAYRSAGNQGAQKLVFGQGTRLTINP Vbeta: ETGVTQSPTHLIKTRGQQVTLRCSSQSGHNTVSWYQQALGQGPQFIFQYYREEENGRGNFPPRFSGLQFPNYSSELNVNALELDDSALYLCASSLGRGTYEQYFGPGTRLTVT | recognises |
